Test results: patent US20240425848A1

Target: histone H3 trimethylated at lysine 9 (H3K9me3) in chromatin of NIH-3T3 cells (UniProt P68433)

TnH #3: 112aaCD (HP1α)-3×(TGS)-Tn5
score: coefficient of the linear model for the difference between TnH and Tn5 enrichment (scGET-seq, NIH-3T3), region chrUn JH584304:0-114452, cell group 0 (G1/S): 0.198

TnH #3: 112aaCD (HP1α)-3×(TGS)-Tn5 (enzyme)
score: coefficient of the linear model for the difference between TnH and Tn5 enrichment (scGET-seq, NIH-3T3), region chrUn JH584304:0-114452, cell group 1 (G2/M): -0.133
score: coefficient of the linear model for the difference between TnH and Tn5 enrichment (scGET-seq, NIH-3T3), region chrUn JH584304:0-114452, cell group 2 (G2/M): -0.105
score: coefficient of the linear model for the difference between TnH and Tn5 enrichment (scGET-seq, NIH-3T3), region chrUn JH584304:0-114452, cell group 3 (G1/S): 0.329
score: coefficient of the linear model for the difference between TnH and Tn5 enrichment (scGET-seq, NIH-3T3), region chrUn JH584304:0-114452, cell group 4 (G1/S): 0.067
score: coefficient of the linear model for the difference between TnH and Tn5 enrichment (scGET-seq, NIH-3T3), region chrUn JH584304:0-114452, cell group 5 (G2/M): -0.146
score: coefficient of the linear model for the difference between TnH and Tn5 enrichment (scGET-seq, NIH-3T3), region chrUn JH584304:0-114452, cell group 6 (G1/S): 0.138
score: coefficient of the linear model for the difference between TnH and Tn5 enrichment (scGET-seq, NIH-3T3), region chrUn JH584304:0-114452, cell group 7 (G2/M): -0.189
score: coefficient of the linear model for the difference between TnH and Tn5 enrichment (scGET-seq, NIH-3T3), region chrUn JH584304:0-114452, cell group 8 (G2/M): -0.287
score: coefficient of the linear model for the difference between TnH and Tn5 enrichment (scGET-seq, NIH-3T3), region chrUn JH584304:0-114452, cell group 9 (G1/S): -0.523
score: coefficient of the linear model for the difference between TnH and Tn5 enrichment (scGET-seq, NIH-3T3), region chrUn JH584304:0-114452, cell group 10 (G2/M): -0.073
score: coefficient of the linear model for the difference between TnH and Tn5 enrichment (scGET-seq, NIH-3T3), region chrUn JH584304:0-114452, cell group 11 (G1/S): -0.457
score: coefficient of the linear model for the difference between TnH and Tn5 enrichment (scGET-seq, NIH-3T3), region chrUn JH584304:0-114452, cell group 12 (G1/S): 0.163
score: coefficient of the linear model for the difference between TnH and Tn5 enrichment (scGET-seq, NIH-3T3), region chrUn JH584304:0-114452, cell group 13 (G2/M): -0.528
score: coefficient of the linear model for the difference between TnH and Tn5 enrichment (scGET-seq, NIH-3T3), region chrUn JH584304:0-114452, cell group 14 (G2/M): -0.28
score: coefficient of the linear model for the difference between TnH and Tn5 enrichment (scGET-seq, NIH-3T3), region chrUn JH584304:0-114452, cell group 15 (G1/S): -0.47
score: coefficient of the linear model for the difference between TnH and Tn5 enrichment (scGET-seq, NIH-3T3), region chrUn JH584304:0-114452, cell group 16 (G1/S): 0.576
score: coefficient of the linear model for the difference between TnH and Tn5 enrichment (scGET-seq, NIH-3T3), region chrUn JH584304:0-114452, cell group 17 (G2/M): 0.468
score: coefficient of the linear model for the difference between TnH and Tn5 enrichment (scGET-seq, NIH-3T3), region chrUn JH584304:0-114452, cell group 18 (G1/S): -0.089
score: coefficient of the linear model for the difference between TnH and Tn5 enrichment (scGET-seq, NIH-3T3), region chrUn JH584304:0-114452, cell group 19 (G1/S): -0.129
score: coefficient of the linear model for the difference between TnH and Tn5 enrichment (scGET-seq, NIH-3T3), region chrUn JH584304:0-114452, cell group 20 (G2/M): -0.011
score: coefficient of the linear model for the difference between TnH and Tn5 enrichment (scGET-seq, NIH-3T3), region chrUn JH584304:0-114452, cell group 21 (G2/M): 0.138
